Laboratory results: US9717715B2

Legend:
[1] = molecular target: c-Met on human cancer cells (human) (UniProt P08581)
[2] = molecular target: c-Met on human cancer cells (human) (UniProt P08581); remark: listed apart in the source

- Akt phosphorylation (%) in Caki-1 cells, 5 ug/ml, 30 min [1]: 100%
Substance: antibody 5D5 (ATCC Cat. # HB11895)
- relative cell viability (%) of MKN45 cells, 72 h [2]: 53%
